In article PMC8557155 (Annals of Nuclear Medicine, 2021):

Legend:
[1] = design: species or system human (Japanese patients); details: in vivo
[2] = design: species or system human (Japanese patients); details: in vivo; remark: listed apart in the source
Description: Image processing and radioactivity quantification were performed by a nuclear medicine expert at site, and dosimetry calculation was performed by the sponsor of the study. All images were taken using the Symbia T-16 SPECT/CT scanner (Siemens). The dual-headed gamma camera was equipped with a 0.952-cm (0.375-in)-thick NaI crystal and a medium-energy low penetration collimator. An energy window of ± 10% was applied around the one dominant gamma ray energies of ^177Lu (208 keV). The matrix size was 256 × 1024. […] Radioactivity quantification was performed on patient images, and the geometric mean was calculated. Regions of interests (ROIs) were drawn around the kidneys, liver, spleen, other organs, and whole body on the planar images. Tumor tissue within the organs was excluded. The absorbed dose to each organ was estimated using the OLINDA/EXM 1.0 (Vanderbilt University), a software based on the Medical Internal Radiation Dose algorithm, which is widely used for established beta and gamma emitting radionuclides. The biological effective dose (BED) for the kidneys were estimated using the SAS software, version 9.4 (SAS Institute).

[3] = in vivo; cited from earlier work
[4] = in vivo; cited from earlier work; remark: listed apart in the source
Text: This study is the first clinical trial on ^177Lu-DOTATATE for unresectable NETs in Japan. At 29.6 GBq, the absorbed dose to the kidney and red bone marrow was 16.8 Gy and 0.722 Gy, respectively. These values were lower than the reported threshold dose for the kidney (23 Gy) and the red bone marrow (2 Gy). The calculated absorbed doses to the kidney, spleen, red bone marrow, and liver were 0.568, 0.559, 0.0244 and 0.247 mGy/MBq, respectively, in this study. We compared the calculated absorbed dose to each organ with previously published studies in Caucasian populations. In the prev ... || In this study, severe lymphopenia occurred in two (33.3%) cases, and other hematological toxicities were grade 1 or 2 leukocytopenia and thrombocytopenia. This finding was very similar to that reported in the Erasmus study. […] In the present study, lymphocyte, erythrocyte, and leukocyte counts gradua ...

C[C@@H](O)[C@H](NC(=O)[C@@H]1CSSC[C@H](NC(=O)[C@@H](Cc2ccccc2)NC(=O)CN2CCN(CC(=O)O)CCN(CC(=O)O)CCN(CC(=O)O)CC2)C(=O)N[C@@H](Cc2ccc(O)cc2)C(=O)N[C@H](Cc2c[nH]c3ccccc23)C(=O)N[C@@H](CCCCN)C(=O)N[C@@H]([C@@H](C)O)C(=O)N1)C(=O)O [177Lu-DOTATATE, ^177Lu-DOTA^0-Tyr^3-octreotate, metal not drawn]
Fraction of the injected activity retained in the blood at 20 min after the injection [1]: 0.00351 % dose/g
Fraction of the injected activity retained in the blood at 4 h after the injection [1]: 0.00077 % dose/g
Effective half-time, distribution phase ([1]; iv): 2.37 ± 0.30 h
Effective half-time, excretion phase ([1]; iv): 42.7 ± 2.44 h
BED for the kidneys for 7.4 GBq, max [2]: 5.38 Gy/7.4 GBq
BED for the kidneys for 7.4 GBq, mean [2]: 4.25 Gy/7.4 GBq
BED for the kidneys for 7.4 GBq, min [2]: 3.04 Gy/7.4 GBq
BED for the kidneys for 29.6 GBq, max [2]: 21.5 Gy/29.6 GBq
BED for the kidneys for 29.6 GBq, mean [2]: 17.0 Gy/29.6 GBq
BED for the kidneys for 29.6 GBq, median [2]: 17.2 Gy/29.6 GBq
BED for the kidneys for 29.6 GBq, min [2]: 12.2 Gy/29.6 GBq
BED for the kidneys, max [2]: 0.727 mGy/MBq
BED for the kidneys, mean [2]: 0.574 mGy/MBq
BED for the kidneys, median [2]: 0.580 mGy/MBq
BED for the kidneys, min [2]: 0.411 mGy/MBq
Effective radioactivity in the kidney at 1 h [2]: 2.39 ± 0.535%
Effective radioactivity in the liver at 1 h [2]: 4.97 ± 2.01%
Effective radioactivity in the spleen at 1 h [2]: 0.812 ± 0.405%
Fraction of the effective radioactivity retained in the whole body at 1 h [2]: 71.4 ± 4.9%
Fraction of the effective radioactivity retained in the whole body at 4 h [2]: 39.5 ± 5.7%
Fraction of the effective radioactivity retained in the whole body at 24 h [2]: 16.0 ± 3.5%
Fraction of the effective radioactivity retained in the whole body at Day 6 [2]: 5.8 ± 1.3%
Absorbed dose to the spleen [3]: 0.645 mGy/MBq
Severe lymphopenia at the follow-up visit after 3 month final treatment [4]: 25.8%
Severe lymphopenia at the follow-up visit after 30 months final treatment [4]: 5.6%
Severe lymphopenia, frequency [4]: 50.0%
Severe renal toxicities, frequency [4]: 1%
